We go through two substances from publication PMC7523099.

The target in assay [1] is SARS-CoV-2 RBD-5GS-1TD0 (SARS-CoV-2 | not stated) (UniProt P0DTC2). The assay is described as follows: SDS-PAGE.
Assay [2] concerns the target SARS-CoV-1 RBD-5GS-1TD0 (SARS-CoV-1 | not stated). The experiment in a line: SDS-PAGE.

“SARS-CoV-2 RBD-5GS-1TD0 (from UniProt P0DTC2 330-532) (domain or fragment)” showed a stoichiometry N in assay [1] of 3. For “SARS-CoV-1 RBD-5GS-1TD0 (domain or fragment)”, in assay [2], the stoichiometry N came to 3.

For orientation: stoichiometry N means a count of units in the complex or per binding partner.
